B1: peptide HD2 (from tick evasin EVA4) / CCL22 (biotinylated, synthetic) (parent complex)
chain 1: EEDDYTAYAPLTCYFT
chain 2: GPYGANMEDSVCCRDYVRYRLPLRVVKHFYWTSDSCPRPGVVLLTFRDKEICADPRVPWVKMILNKLSQ

Variants of: B1

Variant | enrichment
chain 1 Y14P | -3.33 log2 (difference from the parental peptide)
chain 1 Y14E | -6.44 log2 (difference from the parental peptide)
chain 1 Y14L | -2.35 log2 (difference from the parental peptide)
chain 1 Y14T | 1.08 log2 (difference from the parental peptide)
chain 1 Y14W | -0.554 log2 (difference from the parental peptide)
chain 1 Y14F | -0.133 log2 (difference from the parental peptide)
chain 1 Y14M | -1.86 log2 (difference from the parental peptide)
chain 1 Y14I | -0.881 log2 (difference from the parental peptide)
chain 1 Y14C | -2.09 log2 (difference from the parental peptide)
chain 1 Y14S | 0.0467 log2 (difference from the parental peptide)
chain 1 Y14H | 2.15 log2 (difference from the parental peptide)
chain 1 Y14R | -0.04 log2 (difference from the parental peptide)
chain 1 Y14Q | -0.26 log2 (difference from the parental peptide)
chain 1 A9L | -6.75 log2 (difference from the parental peptide)
chain 1 A9M | -5.79 log2 (difference from the parental peptide)
chain 1 A9Y | -6.66 log2 (difference from the parental peptide)
chain 1 A9T | -3.93 log2 (difference from the parental peptide)
chain 1 A9H | -6.63 log2 (difference from the parental peptide)
chain 1 A9E | -1.54 log2 (difference from the parental peptide)
chain 1 A9G | -7.69 log2 (difference from the parental peptide)
chain 1 A9R | 0.319 log2 (difference from the parental peptide)
chain 1 T6D | 3.79 log2 (difference from the parental peptide)
chain 1 T6Y | -1.26 log2 (difference from the parental peptide)
chain 1 T6N | 1.76 log2 (difference from the parental peptide)
chain 1 T6E | 2.68 log2 (difference from the parental peptide)

Variant | enrichment
chain 1 T6H | -0.511 log2 (difference from the parental peptide)
chain 1 T6I | -6.01 log2 (difference from the parental peptide)
chain 1 T6G | 3.08 log2 (difference from the parental peptide)
chain 1 T6S | 3.56 log2 (difference from the parental peptide)
chain 1 T6M | -1.14 log2 (difference from the parental peptide)
chain 1 T6C | -9.54 log2 (difference from the parental peptide)
chain 1 Y8S | -8.74 log2 (difference from the parental peptide)
chain 1 Y8C | -9.68 log2 (difference from the parental peptide)
chain 1 Y8W | -2.54 log2 (difference from the parental peptide)
chain 1 Y8F | -0.0331 log2 (difference from the parental peptide)
chain 1 P10Y | -6.98 log2 (difference from the parental peptide)
chain 1 P10L | -7.92 log2 (difference from the parental peptide)
chain 1 P10E | -6.9 log2 (difference from the parental peptide)
chain 1 P10F | -9.41 log2 (difference from the parental peptide)
chain 1 F15I | -0.829 log2 (difference from the parental peptide)
chain 1 F15M | 0.54 log2 (difference from the parental peptide)
chain 1 F15R | 0.817 log2 (difference from the parental peptide)
chain 1 F15E | -3.12 log2 (difference from the parental peptide)
chain 1 F15T | 0.636 log2 (difference from the parental peptide)
chain 1 F15C | -4.84 log2 (difference from the parental peptide)
chain 1 F15P | -1.52 log2 (difference from the parental peptide)
chain 1 F15Y | 1.03 log2 (difference from the parental peptide)
chain 1 F15S | -0.181 log2 (difference from the parental peptide)
chain 1 F15K | 0.708 log2 (difference from the parental peptide)
chain 1 F15L | -0.246 log2 (difference from the parental peptide)

Variant | enrichment
chain 1 F15A | 1.19 log2 (difference from the parental peptide)
chain 1 F15V | 0.452 log2 (difference from the parental peptide)
chain 1 F15D | -4.01 log2 (difference from the parental peptide)
chain 1 E2M | -2.95 log2 (difference from the parental peptide)
chain 1 E2W | -1.93 log2 (difference from the parental peptide)
chain 1 E2Q | -3.9 log2 (difference from the parental peptide)
chain 1 E2A | -2.53 log2 (difference from the parental peptide)
chain 1 E2K | -5.15 log2 (difference from the parental peptide)
chain 1 E2T | -3.84 log2 (difference from the parental peptide)
chain 1 E2D | 1.62 log2 (difference from the parental peptide)
chain 1 E2H | -3.64 log2 (difference from the parental peptide)
chain 1 E1P | -2.84 log2 (difference from the parental peptide)
chain 1 E1I | -1.58 log2 (difference from the parental peptide)
chain 1 E1V | -1.89 log2 (difference from the parental peptide)
chain 1 E1A | -1.32 log2 (difference from the parental peptide)
chain 1 E1G | -1.59 log2 (difference from the parental peptide)
chain 1 E1H | -2.89 log2 (difference from the parental peptide)
chain 1 E1D | 2.17 log2 (difference from the parental peptide)
chain 1 E1S | -1.77 log2 (difference from the parental peptide)
chain 1 E1T | -2.09 log2 (difference from the parental peptide)
chain 1 E1Q | -0.35 log2 (difference from the parental peptide)
chain 1 E1W | -2.09 log2 (difference from the parental peptide)
chain 1 E1R | -5.65 log2 (difference from the parental peptide)
chain 1 E1L | -1.9 log2 (difference from the parental peptide)
chain 1 E1K | -4.48 log2 (difference from the parental peptide)

Variant | enrichment
chain 1 E1M | -0.805 log2 (difference from the parental peptide)
chain 1 E1N | -1.54 log2 (difference from the parental peptide)
chain 1 D3I | -5.15 log2 (difference from the parental peptide)
chain 1 D3K | -5.36 log2 (difference from the parental peptide)
chain 1 D3P | -3.61 log2 (difference from the parental peptide)
chain 1 D3N | -3.54 log2 (difference from the parental peptide)
chain 1 D3V | -6.53 log2 (difference from the parental peptide)
chain 1 D3F | -5 log2 (difference from the parental peptide)
chain 1 D3Y | -3.98 log2 (difference from the parental peptide)
chain 1 D3T | -3.61 log2 (difference from the parental peptide)
chain 1 D3M | -3.93 log2 (difference from the parental peptide)
chain 1 D3S | -4.38 log2 (difference from the parental peptide)
chain 1 D3E | 1.1 log2 (difference from the parental peptide)
chain 1 D3L | -5 log2 (difference from the parental peptide)
chain 1 L11E | 0.55 log2 (difference from the parental peptide)
chain 1 L11M | 2.52 log2 (difference from the parental peptide)
chain 1 L11F | 0.136 log2 (difference from the parental peptide)
chain 1 L11S | 0.482 log2 (difference from the parental peptide)
chain 1 L11N | -4.2 log2 (difference from the parental peptide)
chain 1 L11C | 0.802 log2 (difference from the parental peptide)
chain 1 L11K | 0.195 log2 (difference from the parental peptide)
chain 1 L11D | -5.76 log2 (difference from the parental peptide)
chain 1 L11H | 2.09 log2 (difference from the parental peptide)
chain 1 L11G | -5.39 log2 (difference from the parental peptide)
chain 1 D4V | -8.27 log2 (difference from the parental peptide)

Variant | enrichment
chain 1 D4E | -1.08 log2 (difference from the parental peptide)
chain 1 D4S | -6.14 log2 (difference from the parental peptide)
chain 1 D4L | -6.02 log2 (difference from the parental peptide)
chain 1 D4Y | -4.71 log2 (difference from the parental peptide)
chain 1 Y5F | -1.41 log2 (difference from the parental peptide)
chain 1 Y5T | -6.08 log2 (difference from the parental peptide)
chain 1 Y5I | -6.63 log2 (difference from the parental peptide)
chain 1 Y5W | 1.1 log2 (difference from the parental peptide)
chain 1 Y5C | -5.08 log2 (difference from the parental peptide)
chain 1 Y5N | -6.71 log2 (difference from the parental peptide)
chain 1 Y5A | -7.07 log2 (difference from the parental peptide)
chain 1 Y5S | -6.78 log2 (difference from the parental peptide)
chain 1 Y5M | -1.76 log2 (difference from the parental peptide)
chain 1 Y5V | -5.81 log2 (difference from the parental peptide)
chain 1 Y5H | -5 log2 (difference from the parental peptide)
chain 1 Y5E | -3.48 log2 (difference from the parental peptide)
chain 1 C13P | -6.43 log2 (difference from the parental peptide)
chain 1 C13I | -3.42 log2 (difference from the parental peptide)
chain 1 C13W | -3.31 log2 (difference from the parental peptide)
chain 1 C13L | -6.36 log2 (difference from the parental peptide)
chain 1 C13H | -3.89 log2 (difference from the parental peptide)
chain 1 C13G | -5.34 log2 (difference from the parental peptide)
chain 1 C13Y | -2.53 log2 (difference from the parental peptide)
chain 1 A7L | -0.735 log2 (difference from the parental peptide)
chain 1 A7V | -3.51 log2 (difference from the parental peptide)

Variant | enrichment
chain 1 A7P | 1.84 log2 (difference from the parental peptide)
chain 1 A7G | 0.519 log2 (difference from the parental peptide)
chain 1 A7M | 1.59 log2 (difference from the parental peptide)
chain 1 A7Y | -1.54 log2 (difference from the parental peptide)
chain 1 A7D | 1.26 log2 (difference from the parental peptide)
chain 1 A7Q | 2.25 log2 (difference from the parental peptide)
chain 1 T12Q | 0.207 log2 (difference from the parental peptide)
chain 1 T12Y | 2.35 log2 (difference from the parental peptide)
chain 1 T12F | -1.02 log2 (difference from the parental peptide)
chain 1 T12I | -0.506 log2 (difference from the parental peptide)
chain 1 T12A | -0.997 log2 (difference from the parental peptide)
chain 1 T12E | -7.95 log2 (difference from the parental peptide)
chain 1 T12V | -0.299 log2 (difference from the parental peptide)
chain 1 T12M | -0.275 log2 (difference from the parental peptide)
chain 1 T12P | 2.6 log2 (difference from the parental peptide)
chain 1 T16Q | 1.11 log2 (difference from the parental peptide)
chain 1 T16M | 0.731 log2 (difference from the parental peptide)
chain 1 T16E | 0.53 log2 (difference from the parental peptide)
chain 1 T16G | 1.83 log2 (difference from the parental peptide)
chain 1 T16V | -0.0944 log2 (difference from the parental peptide)
chain 1 T16H | 0.765 log2 (difference from the parental peptide)
chain 1 T16A | 1.77 log2 (difference from the parental peptide)
chain 1 T16S | 1.36 log2 (difference from the parental peptide)
chain 1 T16N | 0.543 log2 (difference from the parental peptide)
chain 1 T16Y | -0.842 log2 (difference from the parental peptide)

Reference: PMC11969024 (2025)
